Columns and labels:
[1] = target: C-terminal domain of yeast S. cerevisiae mitochondrial oxidase assembly protein 1 (Oxa1-CTD, W320-K402) (S. cerevisiae) (UniProt P39952); assay: MST; Oxa1-CTD (20 µM, labelled with red fluorescent dye) kept constant; E. coli 70S or BSA titrated 1.21-20,000 nM; 20 mM HEPES pH 7.2, 75 mM NaCl, 20 mM MgCl2; three repeats
[2] = target: the molecule itself; assay: SEC; Superdex 75 increase 10/300 GL in NMR buffer (20 mM HEPES pH 7.2, 75 mM NaCl, 20 mM MgCl2, 5 mM β-mercaptoethanol); oligomeric state inferred from elution volumes against standards of the column's manual

Molecule | Kd [1] [nM] | stoichiometry N [2]
E. coli 70S ribosome (complex) | 450 | 
C-terminal domain of yeast S. cerevisiae mitochondrial oxidase assembly protein 1 (Oxa1-CTD, W320-K402) (domain or fragment, UniProt P39952 320-402, looked up, red fluorescent dye (Monolith NT protein labeling kit) in the MST assay; 15N-labelled in the NMR titration, Oxa1, yeast S. cerevisiae, C-terminal domain, residues W320 to K402 (pI = 10.5); cloned into pET-14b with an N-terminal 6x His-tag and a thrombin cleavage site; also called C-terminus of Oxa1; pET14b-Oxa1-CTD (W320-K402)) WVRSKLKITEVAKPRTPIAGASPTENMGIFQSLKHNIQKARDQAERRQLMQDNEKKLQESFKEKRQNSKIKIVHKSNFINNKK |  | 2

— article PMC10572626, “NMR-Based Characterization of the Interaction between Yeast Oxa1-CTD and Ribosomes” (International Journal of Molecular Sciences, 2023)
